In this assay the target is T1, human transferrin receptor-Fc tag standard (human, UniProt P02786 89-760, limits assumed).
T1 construct: Reagent coated on the ELISA plate at 2 ug/ml; also called hTfR; hTER; not shown: Fc tag
Kind of assay: ELISA on plate-coated human TfR-Fc with anti-His detection; Kd calculated from an expected saturation point, since the curve was not saturated at 10000 nM. Here is the method: Then, it was washed 3 times with 200 μl of PBST (PBS+Tween0.05%). An antibody (mouse anti-His tag antibody, Hisprobe) that specifically binds to the hexa-His tag was diluted 1/1000 in PBST, and the diluted solution was treated by 100 μl at room temperature for 1 hour.
Then, it was washed 3 times with 200 μl of PBST (PBS+Tween0.05%). TMB solution expressing coloration by reacting with HRP was treated by 100 μl at room temperature for 15 minutes. After 50 μl of 1M H₂SO₄ solution was treated, optical density was measured with TECAN at a wavelength of 450 nm. This was calculated using the Langmuir equation (Table 4, FIGS. 4 to 6).
FIG. 7 illustrates results of evaluation/comparison of the binding force of huHF_mutant1-dual and huHF_mutant2-dual to hTfR.

T1 sequence (P02786 89-760 limits assumed): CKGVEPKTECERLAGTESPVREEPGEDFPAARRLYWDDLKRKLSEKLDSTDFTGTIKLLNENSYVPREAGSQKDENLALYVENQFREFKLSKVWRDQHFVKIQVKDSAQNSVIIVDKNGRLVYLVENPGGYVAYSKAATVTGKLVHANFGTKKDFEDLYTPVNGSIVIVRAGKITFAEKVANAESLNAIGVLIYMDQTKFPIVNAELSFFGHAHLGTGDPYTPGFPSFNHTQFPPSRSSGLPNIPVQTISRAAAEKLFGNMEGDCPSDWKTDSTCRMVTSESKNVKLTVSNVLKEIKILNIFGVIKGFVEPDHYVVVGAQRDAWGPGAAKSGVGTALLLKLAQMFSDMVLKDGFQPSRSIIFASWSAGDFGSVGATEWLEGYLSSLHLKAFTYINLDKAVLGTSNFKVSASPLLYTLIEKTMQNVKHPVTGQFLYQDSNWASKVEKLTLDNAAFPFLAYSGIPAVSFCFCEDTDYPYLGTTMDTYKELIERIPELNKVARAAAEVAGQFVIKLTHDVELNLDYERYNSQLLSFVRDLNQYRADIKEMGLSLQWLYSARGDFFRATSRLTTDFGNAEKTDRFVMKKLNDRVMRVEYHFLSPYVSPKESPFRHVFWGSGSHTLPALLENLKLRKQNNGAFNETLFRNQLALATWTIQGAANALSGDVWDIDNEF

B1: huHF_Mutant2-dual (designed binder)
chain: MTTASTSQVRQNYHAASEAAINAQINLELYASYVYLSMSYYFDRDDVALKNFAKYFLHQSHEEREHAEKLMKLQNQRGGRIALADIQKPDCDDGGSYGSLYAFDIWESGLNAMECALHLEKNVNQSLLALHALATAKNDPHLCDFIETHYLNEQVKAIKELGDHVTNLRKMGAPESGLAEYLFDKHTLGDSDNESMPSFITLASLSTWEGYFDF
notes: Self-assembled ferritin nanoparticle of 24 monomers
B1: the Kd is about 4.4 µM.

One may read the Kd as a measure of binding affinity in units of concentration.

Source of the values: patent publication US20240218030A1 (CELLEMEDY, published 2024).
